In US6642007 (Pfizer, dated 2003):
No end group written: not given here. *: point of attachment. Biotin = O=C1N[C@H]2[C@H](CS[C@H]2CCCCC(=O)*)N1

T1: biotinylated peptide 225 (SEQ ID NO: 64) (biotinylated (position not given))
T1 construct: Collagen-related peptide fragment on streptavidin magnetic beads
T1 peptide: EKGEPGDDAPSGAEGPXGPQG

T2: biotinylated peptide of SEQ ID NO: 19
T2 construct: Captured on a streptavidin biosensor chip; also called biotinylated peptide 054
T2 peptide: Biotin-GEPGDDGPS

T3: biotinylated peptide Bt-AEGPPGPQG (SEQ ID NO: 14)
T3 construct: also called biotinylated peptide 040; peptide 040
T3 peptide: Biotin-AEGPPGPQG


Key:
[1] = target: T1, biotinylated peptide 225 (SEQ ID NO: 64); assay: told in words beside the Origen result
[2] = target: T2, biotinylated peptide of SEQ ID NO: 19; assay: ELISA-positive hybridoma supernatant, BIAcore over biotinylated peptide SEQ ID NO: 19 on streptavidin chip
Method: Positive wells were subjected to a second round of selection on the BlAcore™ system for those which had antibodies giving the slowest off-rates. Streptavidin (Pierce Chemical) at 100 µg/ml was conjugated using the Pharmacia Amine Coupling Kit (Pharmacia Biosensor) to carboxylated dextran coated biosensor chips (Pharmacia Biosensor) at pH 4.0 using a flow rate of 5 µl/minute for 35 minutes. Typically, 2000 RU was added. Peptide (100 ng/ml), biotinylated on residue 1 of SEQ ID NO: 19 as set forth in the Sequence Listing, was passed over the streptavidin chip at a flow rate of 100 µl/minute for 10 seconds. Supernatants containing antibody were passed over the chip (2 µl/minute for 30 seconds) and the amount of added antibody noted. The buffer was changed to HBS (Pharmacia Biosensor), and the dissociation rate noted for the next 80 seconds. The chip was cleaned with 0.1 N HCl for 30 seconds between each run to remove antibody and to get rid of any nonspecific binding. The off-rates were determined using the BlAevaluation™ software version 2.1.

[3] = target: T3, biotinylated peptide Bt-AEGPPGPQG (SEQ …); assay: BIAcore, biotinylated peptide SEQ ID NO: 14 on streptavidin chip
Method: Positive wells in the ELISA were subjected to a second round of selection on the BIAcore™ system. Wells were sought that produced antibodies having slow off rates on the BIAcore™ system as determined using BIAevaluation™ version 2.1 software (Pharmacia Biosensor, Piscataway, N.J.). Streptavidin (Pierce Chemical) at 100 μg/ml was conjugated using the Pharmacia Amine Coupling Kit (Pharmacia Biosensor) to carboxylated dextran-coated biosensor chips (Pharmacia Biosensor) at a pH 4.0 using a flow rate of 5 μl/minute for 35 minutes. Typically, 2000 RU was added. Peptide (100 ng/ml) biotinylated on residue of 1 of SEQ ID NO: 14 as set forth in the Sequence Listing, was passed over the streptavidin chip at a flow rate of 100 μl/minute for 10 seconds. Candidate supernatants containing antibody were passed over the chip (2 μl/minute for 30 seconds) and the amount of added antibody noted. The buffer was changed to HBS (HEPES buffered saline, Pharmacia Biosensor), and the dissociation rate noted for the next 80 seconds. The chip was cleaned with 0.1 N HCl for 30 seconds between each run to remove residual antibody and to clear any nonspecific binding. The off-rates were determined using BIAevaluation™ kinetic analysis software version 2.1. Clones with the slowest off rates were selected for further analysis. These clones included 9A4, 11F2, and 3H10.
Binding to antigen was evaluated on the BlAcore™ system for both the p9A4lCAT7-1 and p9A4lF-5 scFv purified gene products as follows. A streptavidin chip was loaded with biotinylated peptide of SEQ ID NO: 14 as given in Example 1 above.

[4] = target: T3, biotinylated peptide Bt-AEGPPGPQG (SEQ …); assay: BIAcore, scFv over biotinylated peptide SEQ ID NO: 14 on streptavidin chip, dissociation 280 s
Method: Off-rates for the scFv constructs were measured by analysis of dissociation data obtained on the BlAcore™ system (Pharmacia Biosensor) with BlAevaluation™ version 2.1 software. To obtain the data on the BlAcore™ system, streptavidin surfaces on the BlAcore™ chips were prepared as described previously in Example 1. Biotinylated peptide (SEQ ID NO: 14) was bound to the prepared streptavidin surfaces to RU densities ranging from about 2–11 RU's/surface. The lower level of derivatization would help avoid getting erroneous off-rates that could be obtained if mass transport was an issue. Purified scFv's were injected over these surfaces to allow binding of the constructs for 60 seconds. PBS buffer alone was then substituted and the dissociation of scFv was allowed to proceed for an additional 280 sec. Off-rates were calculated from these dissociation data.

koff [4]	Binder	further results
0.0048 s⁻¹	9A4 scFv (VL-linker-VH-FLAG tag) from p9A4IF-5 (scFv, Monomer purified from E. coli; also called 9A4IF-5 scFv; p9A4lF-5) scFv: QIVLTQSPVFMSASPGEKVTMTCSASSSVSYMYWYQQKPGSSPRLLIHATSNLASGVPVRFSGGGSGTSYSLTISRMEAEDAATYYCQQWRSYTRTFGGGTKLEIILSADDAKKDAAKKDDAKKDDAKKDLEIQLVQSGPELKKPGETVKISCKASGYTFTDYSIHWVKQAPGKGLKWMGWINTETGEPTYADDFKGRFAFSLETSASTAYLQINNLKNEDTATYFCARGGSLDYWGQGTTLTVSSASDYKDDDDK	Kd [3]: 110 nM
0.0094 s⁻¹	9A4 scFv CDR3 VH mutant clone 10C (scFv, Derived from p9A4ICAT7-1) scFv: QIQLVQSGPELKKPGETVKISCKASGYTFTDYSIHWVKQAPGKGLKWMGWINTETGEPTYADDFKGRFAFSLETSASTAYLQINNLKNEDTATYFCGRGGSLDYCGQGTTLTVSSGGGGSGGGGSGGGGSQIVLTQSPVFMSASPGEKVTMTCSASSSVSYMYWYQQKPGSSPRLLIHATSNLASGVPVRFSGGGSGTSYSLTISRMEAEDAATYYCQQWRSYTRTFGGGTKLEIIAAAHHHHHHGAAEQKLISEEDLNGAA	
0.014 s⁻¹	9A4 scFv CDR3 VH mutant clone 18E (scFv, Derived from p9A4ICAT7-1) scFv: QIQLVQSGPELKKPGETVKISCKASGYTFTDYSIHWVKQAPGKGLKWMGWINTETGEPTYADDFKGRFAFSLETSASTAYLQINNLKNEDTATYFCARGGSLDVWGQGTTLTVSSGGGGSGGGGSGGGGSQIVLTQSPVFMSASPGEKVTMTCSASSSVSYMYWYQQKPGSSPRLLIHATSNLASGVPVRFSGGGSGTSYSLTISRMEAEDAATYYCQQWRSYTRTFGGGTKLEIIAAAHHHHHHGAAEQKLISEEDLNGAA	
0.0025 s⁻¹	9A4 scFv CDR3 VH mutant clone 5C (scFv, Derived from p9A4ICAT7-1) scFv: QIQLVQSGPELKKPGETVKISCKASGYTFTDYSIHWVKQAPGKGLKWMGWINTETGEPTYADDFKGRFAFSLETSASTAYLQINNLKNEDTATYFCARGGSLDSWGQGTTLTVSSGGGGSGGGGSGGGGSQIVLTQSPVFMSASPGEKVTMTCSASSSVSYMYWYQQKPGSSPRLLIHATSNLASGVPVRFSGGGSGTSYSLTISRMEAEDAATYYCQQWRSYTRTFGGGTKLEIIAAAHHHHHHGAAEQKLISEEDLNGAA	
0.0103 s⁻¹	9A4 scFv CDR3 VH mutant clone 13G (scFv, Derived from p9A4ICAT7-1) scFv: QIQLVQSGPELKKPGETVKISCKASGYTFTDYSIHWVKQAPGKGLKWMGWINTETGEPTYADDFKGRFAFSLETSASTAYLQINNLKNEDTATYFCGRGGSLDNWGQGTTLTVSSGGGGSGGGGSGGGGSQIVLTQSPVFMSASPGEKVTMTCSASSSVSYMYWYQQKPGSSPRLLIHATSNLASGVPVRFSGGGSGTSYSLTISRMEAEDAATYYCQQWRSYTRTFGGGTKLEIIAAAHHHHHHGAAEQKLISEEDLNGAA	
0.0035 s⁻¹	9A4 scFv CDR3 VH mutant clone 15A (scFv, Derived from p9A4ICAT7-1) scFv: QIQLVQSGPELKKPGETVKISCKASGYTFTDYSIHWVKQAPGKGLKWMGWINTETGEPTYADDFKGRFAFSLETSASTAYLQINNLKNEDTATYFCARGGRLDYWGQGTTLTVSSGGGGSGGGGSGGGGSQIVLTQSPVFMSASPGEKVTMTCSASSSVSYMYWYQQKPGSSPRLLIHATSNLASGVPVRFSGGGSGTSYSLTISRMEAEDAATYYCQQWRSYTRTFGGGTKLEIIAAAHHHHHHGAAEQKLISEEDLNGAA	
0.0104 s⁻¹	9A4 scFv CDR3 VH mutant clone 8D (scFv, Derived from p9A4ICAT7-1) scFv: QIQLVQSGPELKKPGETVKISCKASGYTFTDYSIHWVKQAPGKGLKWMGWINTETGEPTYADDFKGRFAFSLETSASTAYLQINNLKNEDTATYFCARGGSLDNWGQGTTLTVSSGGGGSGGGGSGGGGSQIVLTQSPVFMSASPGEKVTMTCSASSSVSYMYWYQQKPGSSPRLLIHATSNLASGVPVRFSGGGSGTSYSLTISRMEAEDAATYYCQQWRSYTRTFGGGTKLEIIAAAHHHHHHGAAEQKLISEEDLNGAA	

Continued, binder first:

Binder	koff [4]	further results
monoclonal antibody 5109 (antibody, V domains shown) VH: EVQLVESGGGSVQPGGSLKLSCAASGFTFNTYGMSWVRQTPDKRLEWVATINSNGGLTFYADSVKGRFTISRDNAKNTLYLQMNRLKSGDSGMYYCVRGYSNYARWGQGALVTVSA VL: DVVMTQTPLTLSVTIGQSASISCKSSQSLLGSDGLTYLIWLLQRPGQSPKRLIFLVSELDSGVPDRFTGSGSGTDFTLKISRVEAEDLGVYYCCQGTHFPHTFGAGTKLELK		binding result [1]: binds; binding result [2]: binds
monoclonal antibody 9A4 (antibody, V domains shown, also called mAb 9A4; 9A4 IgG) VH: QIQLVQSGPELKKPGETVKISCKASGYTFTDYSIHWVKQAPGKGLKWMGWINTETGEPTYADDFKGRFAFSLETSASTAYLQINNLKNEDTATYFCARGGSLDYWGQGTTLTVSS VL: QIVLTQSPVFMSASPGEKVTMTCSASSSVSYMYWYQQKPGSSPRLLIHATSNLASGVPVRFSGGGSGTSYSLTISRMEAEDAATYYCQQWRSYTRTFGGGTKLEIIR		Kd [3]: 120 nM; koff [3]: 0.0176 s⁻¹
9A4 scFv (VH-linker-VL-HIS-MYC tags) from p9A4ICAT7-1 (scFv, Monomer purified from E. coli TG1; also called 9A4ICAT7-1 scFv; p9A4lCAT7-1) scFv: QIQLVQSGPELKKPGETVKISCKASGYTFTDYSIHWVKQAPGKGLKWMGWINTETGEPTYADDFKGRFAFSLETSASTAYLQINNLKNEDTATYFCARGGSLDYWGQGTTLTVSSGGGGSGGGGSGGGGSQIVLTQSPVFMSASPGEKVTMTCSASSSVSYMYWYQQKPGSSPRLLIHATSNLASGVPVRFSGGGSGTSYSLTISRMEAEDAATYYCQQWRSYTRTFGGGTKLEIIAAAHHHHHHGAAEQKLISEEDLNGAA	0.003 s⁻¹	koff [3]: 0.0012 s⁻¹
9A4 scFv CDR3 VH mutant clone 24A (scFv, Derived from p9A4ICAT7-1) scFv: QIQLVQSGPELKKPGETVKISCKASGYTFTDYSIHWVKQAPGKGLKWMGWINTETGEPTYADDFKGRFAFSLETSASTAYLQINNLKNEDTATYFCGRGGSLEYWGQGTTLTVSSGGGGSGGGGSGGGGSQIVLTQSPVFMSASPGEKVTMTCSASSSVSYMYWYQQKPGSSPRLLIHATSNLASGVPVRFSGGGSGTSYSLTISRMEAEDAATYYCQQWRSYTRTFGGGTKLEIIAAAHHHHHHGAAEQKLISEEDLNGAA	0.0025 s⁻¹	
9A4 scFv CDR3 VH mutant clone 20B (scFv, Derived from p9A4ICAT7-1) scFv: QIQLVQSGPELKKPGETVKISCKASGYTFTDYSIHWVKQAPGKGLKWMGWINTETGEPTYADDFKGRFAFSLETSASTAYLQINNLKNEDTATYFCGRGGNLDHCGQGTTLTVSSGGGGSGGGGSGGGGSQIVLTQSPVFMSASPGEKVTMTCSASSSVSYMYWYQQKPGSSPRLLIHATSNLASGVPVRFSGGGSGTSYSLTISRMEAEDAATYYCQQWRSYTRTFGGGTKLEIIAAAHHHHHHGAAEQKLISEEDLNGAA	0.0028 s⁻¹	
9A4 scFv CDR3 VH mutant clone 38B (scFv, Derived from p9A4ICAT7-1) scFv: QIQLVQSGPELKKPGETVKISCKASGYTFTDYSIHWVKQAPGKGLKWMGWINTETGEPTYADDFKGRFAFSLETSASTAYLQINNLKNEDTATYFCGRGGSLDSCGQGTTLTVSSGGGGSGGGGSGGGGSQIVLTQSPVFMSASPGEKVTMTCSASSSVSYMYWYQQKPGSSPRLLIHATSNLASGVPVRFSGGGSGTSYSLTISRMEAEDAATYYCQQWRSYTRTFGGGTKLEIIAAAHHHHHHGAAEQKLISEEDLNGAA	0.0026 s⁻¹	
9A4 scFv CDR3 VH mutant clone 14B (scFv, Derived from p9A4ICAT7-1) scFv: QIQLVQSGPELKKPGETVKISCKASGYTFTDYSIHWVKQAPGKGLKWMGWINTETGEPTYADDFKGRFAFSLETSASTAYLQINNLKNEDTATYFCARGGSLDHWGQGTTLTVSSGGGGSGGGGSGGGGSQIVLTQSPVFMSASPGEKVTMTCSASSSVSYMYWYQQKPGSSPRLLIHATSNLASGVPVRFSGGGSGTSYSLTISRMEAEDAATYYCQQWRSYTRTFGGGTKLEIIAAAHHHHHHGAAEQKLISEEDLNGAA	0.0027 s⁻¹	
